From PMC4790445 (Nature structural & molecular biology, 2015) come the findings set out here.

This assay has as its target WT EGFR kinase (residues 696-1022) (human, UniProt P00533 696-1022). Put plainly: kinase inhibition kinetics.

B1: unphosphorylated Mig6 segment 1+2 (residues 330-399) (domain or fragment, human, UniProt Q9UJM3 330-399, looked up)
chain: SRTPSPKSLPSYLNGVMPPTQSFAPDPKYVSSKALQRQNSEGSASKVPCILPIIENGKKVSSTHYYLLPE
Usually Ki stands for a dissociation constant, usually derived from enzyme kinetics or from competition with a known ligand. A low value points to higher affinity. On to B1, for which the Ki lay in the range of 10 to 20 nM.
